Paper PMC10602967, “Modulatory role of RNA helicases in MBNL-dependent alternative splicing regulation”

Assays:
rDDX5 [1] = target: T1, rDDX5 (UniProt P17844 1-614); experiment: EMSA; slightly preferred over RNA-ctrl; no defined complex band; Kd only in figure; EMSA: 15 nM RNA, 50 mM NaCl, 50 mM KCl, 50 mM Tris-HCl, 1 mM MgCl2 (pH not stated), 37 C 15 min, 10 ul, 6% native PA gel; Kd by one-site fit with Bmax = 100; conditions: protein: commercial; label: 5'-biotin; 3'-Cyanine 5; single-stranded
rDDX5 [2] = target: T1, rDDX5; experiment: EMSA; slightly lower preference than ss(UGCU)4; no defined complex band; Kd only in figure; EMSA: 15 nM RNA, 50 mM NaCl, 50 mM KCl, 50 mM Tris-HCl, 1 mM MgCl2 (pH not stated), 37 C 15 min, 10 ul, 6% native PA gel; Kd by one-site fit with Bmax = 100; conditions: protein: commercial; label: 5'-biotin; 3'-Cyanine 5; single-stranded

T1 sequence (P17844 whole entry): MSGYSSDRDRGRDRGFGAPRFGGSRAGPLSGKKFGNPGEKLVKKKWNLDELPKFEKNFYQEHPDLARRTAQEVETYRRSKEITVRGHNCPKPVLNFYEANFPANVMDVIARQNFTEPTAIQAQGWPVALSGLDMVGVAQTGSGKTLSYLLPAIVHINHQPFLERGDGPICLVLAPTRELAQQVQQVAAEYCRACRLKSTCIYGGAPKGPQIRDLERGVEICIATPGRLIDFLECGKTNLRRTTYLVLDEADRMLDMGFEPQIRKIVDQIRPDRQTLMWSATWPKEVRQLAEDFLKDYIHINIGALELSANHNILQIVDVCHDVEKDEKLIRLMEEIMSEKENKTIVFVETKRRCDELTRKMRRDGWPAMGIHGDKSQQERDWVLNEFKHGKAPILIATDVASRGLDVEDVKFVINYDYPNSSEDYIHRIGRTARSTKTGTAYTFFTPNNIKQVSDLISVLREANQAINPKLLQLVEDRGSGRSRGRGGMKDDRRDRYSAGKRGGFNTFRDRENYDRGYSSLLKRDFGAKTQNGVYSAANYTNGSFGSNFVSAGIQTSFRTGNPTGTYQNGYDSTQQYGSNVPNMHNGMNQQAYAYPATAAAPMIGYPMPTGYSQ

Binder	binding result (rDDX5 [1])	binding result (rDDX5 [2])
UUUUUUUUGCUUGCUUGCUUGCUUUUUUUU (ssRNA) [RNA-ss(UGCU)4]	binds	
UUUUUUUUGUCUGGUCCCUCGUUUUUUUU (ssRNA) [RNA-ctrl]		binds
